We go through 14 molecules from patent publication US20200024362A1 (SHANGHAI BENEMAE PHARMACEUTICAL, published 2020).

The target of assay [1] is T1, human coagulation factor XI (human, UniProt P03951 19-625).
T1 construct: Bought from Enzyme Research Laboratory (HFXI 1111); also called FXI; human FXI
As to the kind of experiment: capture ELISA screening of hybridomas from animals immunized with human FXI. In general terms: An ELISA detects its analyte on a solid surface through an enzyme-linked reagent.

Assay [2] deals with T2, human factor XIa (human, UniProt P03951 19-387; P03951 388-625).
T2 construct: also called FXIa
Kind of assay: SPR, antibody captured on sensor chip, FXIa flowed. On the technique in general: Surface plasmon resonance follows binding to a sensor surface in real time, without labels.

Assay [3] addresses T1, human coagulation factor XI. Kind of assay: SPR (Biacore T200), antibody captured on anti-human IgG CM5 chip, FXI flowed.
Experimental: (§1) The affinity of anti-FXI/FXIa antibodies to FXI/FXIa were determined using surface plasmon resonance (SPR) technology performed on the BIAcore T200 instrument. […] These antibodies were captured onto a Biacore CM5 sensor chip that was pre-immobilized with an anti-human IgG antibody.
(§2) Then different concentrations of the purified antigen FXI or FXIa (0.005-1 μg/mL) were allowed to flow through the CM5 chip for 180 s for association with the anti-FXI/FXIa antibody, followed by a time of 1800 s for dissociation. The binding data was collected and the affinity between FXI/FXIa and the test antibodies was analyzed using the Biacore Evaluation Software provided by GE Healthcare.
Assay [4] addresses T2, human factor XIa. Kind of assay: cell-based or functional assay.
The target in assay [5] is T1, human coagulation factor XI. As to the kind of experiment: SPR, antibody captured on sensor chip, FXI flowed.
Experimental: (§3) The interaction of the antibodies with FXI was determined by the SPR assay on a Biacore T200 system (Biacore, GE Healthcare). Briefly, human IgG capture antibody (Biacore, GE Healthcare) was pre-immobilized on a CM5 sensor chip (GE Healthcare), and test antibodies were captured by flowing through the chip. The final amount of the test antibodies captured was adjusted to an equal amount of 15 response units (RU) by adjusting the capture time. Then, antigen FXI was allowed to flow through the chip for 180 s for association and then for 1200 s for dissociation. […] The data were collected and the affinities between the test antibodies and FXI were analyzed using the Biacore Evaluation Software.
(§4) The test antibodies were captured on a sensor chip, and then indicated concentrations of FXI were allowed to flow through the chip.
Assay [6] shares this target. Kind of assay: SPR (Biacore T200), antibody captured on anti-human IgG CM5 chip, FXI 0.063 to 6.25 nM flowed.
Experimental: as §3, §4
Assay [7] deals with T2, human factor XIa. Kind of assay: SPR (Biacore T200), antibody captured on anti-human IgG CM5 chip, FXIa flowed.
Experimental: as §1, §2
Assay [8] deals with T2, human factor XIa. Kind of assay: apparent Ki, inhibition of FXIa (5 nM) cleavage of chromogenic substrate S-2366.
The target of assay [9] is T2, human factor XIa. Kind of assay: SPR (Biacore T200), antibody captured on sensor chip, FXIa 0.063 to 6.25 nM flowed.
For assay [10], the target named is T2, human factor XIa. Described as above. The source holds these as a separate data set.
Assay [11] has as its target T2, human factor XIa. As to the kind of experiment: cell-based or functional assay. This is another data set of the same source.
Assay [12] has as its target T1, human coagulation factor XI. As to the kind of experiment: SPR (Biacore T200), antibody captured on anti-human IgG CM5 chip, FXI 0.063 to 6.25 nM flowed. The source holds these as a separate data set.
Experimental: as §3, §4

Like-named read-outs stand apart in the source and are kept apart here.

B1: 3G12 (antibody, V domains shown)
VH: QVTLKESGPGILQPSQTLSLTCSFSGFSLNTPGMGVSWIRQPSGKGLEWLAHIYWDDDKRFNPSLKSRLTISKDTSRDQVFLMITSVDTADSATYFCARKGRGPFTYWGQGTLVTVSS
VL: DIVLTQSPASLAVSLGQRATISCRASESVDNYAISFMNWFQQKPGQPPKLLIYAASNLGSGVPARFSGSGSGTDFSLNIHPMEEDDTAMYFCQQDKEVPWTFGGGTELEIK
notes: Hybridoma monoclonal antibody
For B1, the binding result in assay [1] was “binds”.

B2: 5B2 (antibody, V domains shown)
VH: QVTLKESGPGILQPSQTLSLTCSFSGFSLNTSGMGVSWIRQPSGKGLEWLAHIYWDDDKRYKPSLKSRLTISKDTSRNQVFLMITSVDTADTATYYCVRKGRGPFANWGQGTLVTVSA
VL: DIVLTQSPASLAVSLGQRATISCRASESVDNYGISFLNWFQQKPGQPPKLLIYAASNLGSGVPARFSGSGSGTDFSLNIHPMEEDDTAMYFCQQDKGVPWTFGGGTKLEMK
notes: Hybridoma monoclonal antibody
For the molecule B2, the binding result in assay [1] is “binds”.

B3: 34F8 (antibody, V domains shown)
VH: QVQLKESGPGLVQPSQTLSLTCTVSGFSLTTYHVHWVRQPPGKGLEWMGIMWRDGDTSYNSVLKSRLSISRDISKSQVFLKMSSLQTEDTATYFCARGGTLTTPFTYWGQGTLVTVSS
VL: DVVLTQTPGSLSVTLGQQVSISCRSSQSLESRDGNTYLEWYLQKPGQSPQVLLYGVSNRLSGVPDRFLGRGSGADFTLKISRVEPEDLGVYYCFQATHGPFTFGSGTKLEMK
notes: Hybridoma monoclonal antibody
For the molecule B3, the binding result in assay [1] is “binds”.

B4: h-42A5 (antibody, V domains shown)
VH: QVTLKESGPVLVKPTETLTLTCTVSGFSLTSYHLHWIRQPPGKALEWMGLMWRDGDTSYNSRLKSRLTISRDTSKSQVVLTMTNMDPVDTATYYCARGMTLATPFLYWGQGTLVTVSS
VL: DVVLTQTPLSLSVTPGQPASISCRSSQSLESSDGNTYLEWYLQKPGQSPQLLIYGVSNRFSGVPDRFSGSGSGTDFTLKISRVEAEDLGVYYCFQATRDPFTFGQGTKLEIKR
notes: Humanized antibody in human IgG4 form; also called humanized 42A5
Turning to B4, the Kd in the assay with human factor XIa [2] came to 0.0081 nM; in [3], 0.0357 nM; in [5], 0.036 nM; with human factor XIa [7], 0.00814 nM. Further, the “IC50 (read off the curve)” value in the assay with human factor XIa [4] is ~5 nM. Besides, the dissociation rate constant (koff) amounted to 4.07e-05 s⁻¹ in assay [6] and 1.38e-05 s⁻¹ with human factor XIa [9]. Moreover, the association rate constant (kon) in [6] was determined as 1.14e+06 M⁻¹ s⁻¹; with human factor XIa [9] it was 1.69e+06 M⁻¹ s⁻¹. For the same molecule, in the assay with human factor XIa [8], the Ki came to 1.43 nM.

B5: h-34F8 (antibody, V domains shown)
VH: QVQLQESGPGLVKPSETLSLTCTVSGFSLTTYHVHWVRQPPGKGLEWIGIMWRDGDTYYNSSLKSRVTISRDTSKNQVSLKLSSVTAADTAVYFCARGGTLTTPFTYWGQGTLVTVSS
VL: DVVLTQTPLSLPVTPGEPASISCRSSQSLESRDGNTYLEWYLQKPGQSPQVLLYGVSNRLSGVPDRFSGSGSGTDFTLKISRVEAEDVGVYYCFQATHGPFTFGQGTKLEIKR
notes: Humanized antibody in human IgG4 form; also called humanized 34F8
B5: the dissociation constant Kd is 0.0195 nM in assay [3] and 0.00385 nM in the assay with human factor XIa [7]. Moreover, in the assay with human factor XIa [8], the Ki was 2.08 nM.

B6: 21F12 (antibody, V domains shown)
VH: EVQLVESGGGLVQPGRSLKLSCVASGFTFNNHWMTWIRQAPGKGLEWVASITDNGGSTYYPDSVKGRFTISRDNAKSTLYLHMNSLRSEDTATYYCTRDRYDSDGYYYVRYYVVDAWGQGASVTVSS
VL: DVRMTQSPASLSASLGETVNIECLASEDIYSDLAWYQQKPGKSPQLLIYNANSLQNGVPSRFSGSGSGTQYSLKISTLQSEDVATYFCQQYSNYRRTFGGGTKLEIN
notes: Hybridoma monoclonal antibody
Consider B6, for which the binding result in assay [1] was “binds”.

B7: 42F4 (antibody, V domains shown)
VH: EVQLQESGPGLVKPSQSLSLTCSVTGYSITNHYWGWIRKFPGNKMEWIGHISNSGGTNYNPSLKSRISITRDTSKNQFFLQLKSVTTEDTATYYCTRGSYYYSASGYFDYWGQGVLVTVSS
VL: DIRMTQSPASLSASLGETVNIECLASEDIHSDLAWYQQKPGKSPQLLIYNANSLQNGVPSRFSGSGSGTQYSLKITSLQSEDVATYFCQQYTNYPNTFGAGTKLEIN
notes: Hybridoma monoclonal antibody
For the molecule B7, the binding result in assay [1] was “binds”.

B8: 38E4 (antibody, V domains shown)
VH: EVQLQESGPGLVKPSQSLSLTCSVSGFSITNNYWGWIRKFPRNKMEWIGHISYSGSTNYNPSLKSRISITRDSSKSQFFLQLNSLTTEDTATYYCARGSYYYSASGYFDYWGQGITVTVSS
VL: DIRMTQSPASLSASLGETVNIECLASEDIYSDLAWYQQKPGKSPQLLIYNANSVQNGVPSRFSGSGSGTQYSLKINSLQSEDVATYFCQQFNSYPNTFGAGTKLEIK
notes: Hybridoma monoclonal antibody
Turning to B8, the binding result in assay [1] is reported as “binds”.

B9: 45H1 (antibody, V domains shown)
VH: EVQLQESGPGLVKPSQSLSLICSVTGYSITTTYWGWIRKFPGNKMEWIGHISNSGSTNYNPSLKSRISVTRDTSTNQFFLQLNSVTTEDTATYYCARGSYYYSASGYFDYWGHGVMVTVSS
VL: DIRMTQSPASLSASLGETVNIGCLASEDIYSDLAWYQQKPGKSPQLLIYNANNLQNGVPSRFSGSGSGTQYSLKINSLQSEDVATYFCQQYNSYPNTFGAGTKLEIK
notes: Hybridoma monoclonal antibody
Take B9: the binding result in [1] is “binds”.

B10: h-19F6 (antibody, V domains shown)
VH: EVQLVESGGGLVQPGRSLRLSCTASGFTFSKYAMSWVRQAPGKGLEWVSAINYDGSTTYYADSVKGRFTLSRDNSKNTLYLQMNSLRAEDTAVYYCARHPFNNFGIWFAYWGQGTLVTVS
VL: QFQLTQPSSVSASVGDRVTITCERSSGDIGDSYVSWYQQKPGQPPKNVIYADDQRPSGVPDRFSGSIDGSGNSASLTISSLQAEDAADYFCQSYDSNIDFNPVFGGGTKLEVK
notes: Humanized rat antibody in human IgG4 form (variable regions linked to human IgG4 Fc domain, expressed in CHO cells); also called humanized 19F6
For B10, the figures for the koff (with human factor XIa [10]; in [12]) were 8.36e-05 s⁻¹ and 5.88e-05 s⁻¹, respectively. The kon worked out at 3.24e+06 M⁻¹ s⁻¹ with human factor XIa [10] and 2.65e+06 M⁻¹ s⁻¹ in assay [12]. The Kd in the assay with human factor XIa [2] stood at 0.026 nM; in assay [3], 0.0222 nM; in assay [5] it was 0.022 nM; in the assay with human factor XIa [7], 0.0258 nM. Also, in the assay with human factor XIa [11], the “IC50 (read off the curve)” value was ~3 nM. For the same molecule, in the assay with human factor XIa [8], the Ki is 0.67 nM.

B11: 42A5 (antibody, V domains shown)
VH: QVQLKESGPGLVQPSQTLSLTCTVSGFSLTSYHLHWIRQPPGKGLEWMGLMWRDGDTSYNSRLKSRLSITRDTSKSQVFLKMSGLQTEDTATYYCARGMTLATPFLYWGQGTLVTVSS
VL: DVVLTQTPGSLSVTLGDPASMSCRSSQSLESSDGNTYLEWYLQKSGQSPQLLIYGVSNRFSGVPDRFAGSGSGTDFTLKISRVEPEDLGVYYCFQATRDPFTFGSGTKLEIN
notes: Hybridoma monoclonal antibody
Regarding B11, in assay [1], the binding result is given as “binds”.

B12: 13F4 (antibody, V domains shown)
VH: EVQLKESGPGLVQPSQTLSLTCTVSGFSLTDYSVHWVRQPPGKGLEWMGVMWSGGSTAYNPALTSRLTISRDTSKSQVFLKMNSLQTEDTAIYYCTRAPFNNWGNWLPYWGQGTLVTVSS
VL: QFTLTQPKSVSGSLRSTITIPCERSSGDIGDSYVSWYQQHLGRPPINVIYADDQRPSEVSARFSGSIDSSSNSASLTITNLQMDDEADYFCQSYDTYMDVVFGGGTKLNVL
notes: Hybridoma monoclonal antibody
With B12, the binding result in assay [1] is given as “binds”.

B13: 19F6 (antibody, V domains shown)
VH: EVQLVESGGGLVQPGRSLRLSCTASGFTFSKYVMAWVRQAPTKGLEWVASINYDGSTTYYRDSVQGRFTLSRDNAKTTLYLQMDSLRSEDTATYYCARHPFNNFGIWFAYWGQGTLVTVSS
VL: QFTLTQPKSVSGSLRSTITIPCERSSGDIGDSYVSWYQQHLGRPPINVIYADDQRPSEVSDRFSGSIDTSSNSASLTITNLQMDDAADYFCQSYDSNIDFNPVFGGGTKLTVL
notes: Hybridoma monoclonal antibody (rat, immunized with human FXI)
On to B13, for which the binding result in [1] is given as “binds”.

B14: 7C9 (antibody, V domains shown)
VH: QIQLVQSGPELKKPGETVKISCKASGYIFTDYGMNWVKQAPGKGLKWMGWINTYTGEPTYADDFKGRFVFSLETSASTAYLQINNLKNEDTATFFCARRRMGYAVDYWGQGTSVTVSS
VL: DIQMTQSPSSLSASLGERVSLTCRASQDIDIRLNWLRQEPDGTIKRLIYATSSLDSGVPKRFSGSRSGSDYSLTISSLESEDFVDYYCLQYASSPFTFGSGTKLEIK
notes: Hybridoma monoclonal antibody
Take B14: the binding result in assay [1] is “binds”.

The term Kd denotes the concentration at which binding is half-saturated. As usually defined, the koff is the first-order rate constant of dissociation. Read a high koff as a short-lived complex. What is called kon is the rate constant with which the complex forms.
